Test results taken from patent publication US20090324593A1 (MacroGenics, published 2009).
Substitutions are numbered along the chain they refer to. Names and notes keep the numbering of the source.

T1: WNV E-protein domain III (dIII) (West Nile Virus, UniProt Q9Q6P4 580-705)
T1 construct: domain: Domain III; also called the antigen; the receptor
T1 sequence (looked up): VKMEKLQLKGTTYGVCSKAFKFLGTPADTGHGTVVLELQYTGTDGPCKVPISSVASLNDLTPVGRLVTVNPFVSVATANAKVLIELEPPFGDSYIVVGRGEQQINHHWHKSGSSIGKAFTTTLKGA

B1: Humanized E16 huE16-3.1 (huE16HC T71A / huE16LC) (antibody, V domains shown)
VH: QVQLVQSGAEVKKPGASVKVSCKASGYTFTDYWIEWVRQAPGQGLEWMGDILCGTGRTRYNEKLKARVTMTADTSTSTAYMELRSLRSDDTAVYYCARSASYGDYADYWGQGTTVTVSS
VL: DIVMTQSPDSLAVSLGERATINCKASQDVSTAVAWYQQKPGQPPKLLIYWASTRHTGVPDRFSGSGSGTDFTLTISSLQAEDVAVYYCQQHYTTPLTFGQGTKLEIK
notes: also called huE16-3 (T71A)/huE16LC; huE16HC-2 T71A/huE16LC
B2: Humanized E16 huE16-2.2 (huE16HC-2 V67A, M69F, T71A / huE16LC-2 Y49S) (antibody, V domains shown)
VH: B1 VH with V68A, M70F
VL: B1 VL with Y49S
B3: Humanized E16 huE16-2.1 (huE16HC-2 V67A, M69F, T71A / huE16LC) (antibody, V domains shown)
VH: B1 VH with V68A, M70F
VL: B1 VL
B4: Humanized E16 huE16-3.2 (huE16HC T71A / huE16LC-2 Y49S) (antibody, V domains shown)
VH: B1 VH
VL: B1 VL with Y49S
notes: also called hE16-3.2; huE16-2 (T71A)/huE16LC-2 (Y49S)

target: T1, WNV E-protein domain III (dIII); assay: antigen capture ELISA (sheet title: E9 captured E protein DIII), 2.5 ng/well domain III captured by mouse antibody E9, HRP anti-human IgG F(ab')2 detection
Experimental: Protocol for antibody-capture ELISA assay: 2.5 ng/well of dIII was captured on 96-well Maxisorp plates by mouse anti-WNV E-protein antibody E9 at room temperature for 2 hours. A serial of two-fold dilution of conditioned medium of chE16, huE16, huE16HC/ch2B6LC or chE16HC/huE16LC starting from 5 ng/well was added to each well. The plate was incubated at room temperature for 1 hour, then binding was detected by HRP conjugated F(ab′)₂ goat anti human IgG F(ab)′₂ specific secondary antibody (Jackson ImmunoResearch, Inc.) at 1:10,000 dilution. After incubation with the secondary antibody for approximately 45 minutes, the plate was developed using a TMB substrate. After 5 minutes incubation, the reaction was stopped by 1% H₂SO₄. The OD₄₅₀ nm was read by SOFTmax program. Between each step, the plates were washed 3 times with PBS/0.1% Tween20. Plates were blocked by 0.5% BSA in PBS/0.1% Tween 20 for 30 mins at room temperature before adding conditioned medium.
After three days in culture the amount of human IgG expressed was quantitated by ELISA. Binding to WNV E-protein domain III (dIII) was determined by ELISA and antibody-capture ELISA assays as described above.

EC50 (read off the curve), ~0.01 µg/mL:
B1, B2, B3, B4
